Experimental findings from patent US7303752B2, “Hookworm vaccine” (The George Washington University, priority 2001, dated 2007) are described below.

Where “and” joins values, the source holds several entries; their conditions need not be identical. Equal entries are not always repeated.

Assay [1] has as its system antibody to recombinant proteins. As to the kind of experiment: Pre-challenge antibody titer ELISA, trial with Ac-ASP-2, Ac-API, Ac-MEP-1, Ac-APR-1 in AS03. In kind it is in vivo, dog. As to conditions: for antibody response, in words: AS03. The protocol: (§1) The vaccine trial was designed to test Ac-API, Ac-ASP-2, Ac-MEP-1, Ac-APR-1 formulated with Adjuvant System 03 (AS03) obtained from GlaxoSmithKline (GSK). The rationale for selecting AS03 as an adjuvants is discussed elsewhere (Stoute et al, 1997). The ten purpose bred beagles were randomized into five arms: immunized with the adjuvant-formulated recombinant proteins or adjuvant only (control). To make six doses of antigen formulated with AS03, […] of recombinant protein (0.3 ml of antigen at a concentration of 2 mg.ml^−1) was mixed with 1.2 ml of 20 mM Tris-HCl, 0.5 M NaCl, pH 7.9 and 1.5 ml of AS03; the contents of the tube were vortex mixed for 30 seconds then shaken at low speed for 10 minutes. Dogs were immunized with 100 g of formulated antigen in a final volume of 0.5 ml. ASO3 only control was prepared as described above, with PBS included instead of antigen. Formulation of GSK adjuvants were conducted according to the protocol provided by GSK. All injections were performed intramuscularly (IM). Test and control articles were prepared on the day of injection. All animals received 4 immunizations approximately 3 weeks apart.
Beagles were immunized with formulated Ac-ASP-2 as previously described (Loukas et al, 2004). The vaccines were administered IM three times beginning at age 62+/−4 days. Boosts were administered to the dogs at intervals of 21 days. Blood was drawn at least once every 21 days and serum was separated from cells by centrifugation. Each animal's specific antibody response was evaluated by indirect ELISA using serum taken prior to the infective challenge (Loukas et al, 2004). Recombinant Ac-ASP-2 was coated onto microtiter plates at a concentration of 5 g.ml^−1. Dog sera were titrated between 1:100 and 1:2×10^6 to determine endpoint titers. Anti-canine IgG1, IgG2 and IgE antibodies conjugated to horse-radish peroxidase (Bethyl Laboratories) were used at a dilution of 1:1,000.
For orientation: In an ELISA, binding on a coated surface is turned into a signal by an enzyme label.

The next assay has as its system A. caninum. As to the kind of experiment: Canine vaccine trial with Ac-ASP-2, Ac-API, Ac-MEP-1, Ac-APR-1 in AS03, footpad challenge with 500 A. caninum L3. In kind it is in vivo, dog. As to conditions: for worm burdens, Maximum / worm burdens, Minimum / worm burdens, Mean / worm burdens, Median: 5 dogs; for worm burdens, Mean: ASO3 control 203.8000; for worm burdens, Median: ASO3 control 215.0000; for worm burden, Colon, Male, Average / worm burden, Colon, Female, Average / worm burden, Intestine, Female, Average / worm burden, Intestine, Male, Average / worm burden, Total, Average: group average; for worm burden, Colon, Male, Average: AS03 control 5; for worm burden, Colon, Female, Average: AS03 control 9; for worm burden, Intestine, Female, Average: AS03 control 95; for worm burden, Intestine, Male, Average: AS03 control 96; for worm burden, Total, Average: AS03 control 204; for worm burden, Colon, Female / worm burden, Colon, Male / worm burden, Intestine, Female / worm burden, Intestine, Male / worm burden, Total: individual dogs. On the procedure:
as §1, with “The ten purpose bred beagles were randomized into five arms: immunized with the adjuvant-formulated recombinant proteins or adjuvant only (control).” left out
A. caninum larvae were cultured from eggs collected in the feces of infected dogs. All hookworms in the infective challenge were approximately equal age (17±7 days post hatching). The species identity of the infective larvae were validated using PCR. All dogs were infected by the footpad method with the same dose of 500 L3 of A. caninum (Zhan et al, 2001). Larval challenge occurred on one of three consecutive days (at age 120+/−9 days). Fourteen-sixteen days after the final immunization, dogs were anesthetized using a combination of ketamine and xylazine (20 mg.kg^−1 and 10 mg.kg^−1 respectively), and 500 A. caninum L3 in a final volume of […] were applied to the footpad.

B1: Ac-MEP-1: A. caninum metalloendopeptidase antigen, SEQ ID NO: 14 (protein, listed as Ancylostoma caninum)
chain: MAKLLEVTTGLVVLLGVLGVISVVFNVLTWLKLNENKDDSSPAPKIWNVGEQDNTPVLTNLLVLEKEELAAKLKKTPYEEVDEQTVRQSSVMKLRNIKNALFTIEPVASALPPLRVNDPKYCPSYGEPDKKYAYQEAASYLLSGLDQTVDPCEDLYAFTCNTYLRNHNATDIGVNRIGTYKDAQDDVNAEIVEALEEVNVSDTKWSETERLVKATLFTCVHHTRARKPIDNSKNVLIEMRDLFGGIPFLNHTLKKDIDFFDIMGKFEQNHAMGTLLGAMVSVDFKNVNKHSLFLSQPYLPMARDFYVFPQHTKMVENRVSLINSVLRSFAEAVLDDPSPYLDLMSRSARDVVKLEMQIAMASWPESELRNYAQQHNPRTLNQLKAAYPAIKWDSYFNALLSSVQGVDMNRQNIILTQPSYFGWLNALFNGGADDKTIANYLLVHLILEEADFLGGALKTMVQKSDYVPYALGRGKGVTRVGQQLTRSHDDTVEDANIQCLNSMMTYMPFGPGYVYVKSRKNRDDVVKDIEHQTELVFKNFVNMIGNLNWMTDASLELAMEKADTMVKNYGWPKDLFGNFRDSSKIDAYHKKDYGNIINLYKENITHNYYHIRRTMIKGYSNHESLRLLTEAPKRDHFLLSPALVNAWYIPERNSIAFPYAFWNPPYYNYEYPQACNYAGQGGTAGHELVHGFDDQGVQFAADGSLSDCTWIECGWLEEKSKKGFSDMAQCVVTQYSTQCCPQTGGVTHCANGATTQGENIADLGGQLAAYRAYREYITKERGEEEKRLPGLEQYTPNQIFWITYGYSWCMSQTDSSLIRQLLTDVHSPGSCRVNQVMQDIPEFALDFGCTMGQKMYPEPEQRCPVWVAE
In the case of B1, in assay [1], the “antibody response, in words” value was “weak”. In assay [1] (geometric mean of group), the “Pre-challenge antibody titer, IgG1, GEOMEAN” value is 100 and the “Pre-challenge antibody titer, IgG2, GEOMEAN” value is on record as 1,204. Also, in assay [1] (individual dogs), the “Pre-challenge antibody titer, IgG1” value is given as 100; the “Pre-challenge antibody titer, IgG2” value is 1,500 (4×) and 500. Moreover, in the assay with A. caninum, the “worm burdens, Maximum” value stood at 293.00; the “worm burdens, Minimum” value is reported as 109.00; the “worm burdens, Mean” value is 183.4000; the “worm burdens, Median” value came to 129.0000. Besides, in the assay on A. caninum, the “worm burden, Colon, Male, Average” value stood at 3; the “worm burden, Colon, Female, Average” value was 6; the “worm burden, Intestine, Female, Average” value was 91; the “worm burden, Intestine, Male, Average” value is recorded as 87. Further, in the assay with A. caninum, the “worm burden, Total, Average” value was determined as 183; the “worm burden, Colon, Female” value was 0 and 2 and 7 and 9 and 12; the “worm burden, Colon, Male” value is 0 and 1 and 2 and 5 and 8; the “worm burden, Intestine, Female” value was 64 and 58 and 153 and 130 and 50. Further, in the assay on A. caninum, the “worm burden, Intestine, Male” value was 65 and 47 and 131 and 124 and 49; the “worm burden, Total” value is 129 and 108 and 293 and 268 and 119. Further, the “worm burden reductions in three out of the five vaccinated dogs” value in the assay on A. caninum (versus control mean) was “exceeded 36%”.

B2: Ac-API: A. caninum aspartyl protease inhibitor antigen, SEQ ID NO: 38 (protein, listed as Ancylostoma caninum)
chain: MKLLALSALFALAFAAPRDKRLAVSTITVTGGLGLSTGCVVTGNVLYANGFRVREITPSEQQELVKYQNDVAEYKTALKQAIKEREEKIRARLAGKKVKAVESTNQEDLPKPPQKPSFCTPEDTTQFFFEGCMIQNNKIYVGNTFARDLTQPEISELKEFEKKFKVYQDYVQKQAEQQVNSLFGGSDFFSALFSGGETSKPSTTTVAPELPEDAPEQPPTPNFCTRII
With B2, in assay [1], the “antibody response, in words” value is recorded as “robust”. In assay [1] (geometric mean of group), the “Pre-challenge antibody titer, IgE, GEOMEAN” value is listed as 100; the “Pre-challenge antibody titer, IgG1, GEOMEAN” value is reported as 3,612; the “Pre-challenge antibody titer, IgG2, GEOMEAN” value is listed as 32,511. In addition, in assay [1] (individual dogs), the “Pre-challenge antibody titer, IgE” value is reported as 100; the “Pre-challenge antibody titer, IgG1” value was 4,500 (4×) and 1,500; the “Pre-challenge antibody titer, IgG2” value is 40,500 (4×) and 13,500. Moreover, in the assay on A. caninum, the “worm burdens, Maximum” value worked out at 237.00; the “worm burdens, Minimum” value amounted to 146.00; the “worm burdens, Mean” value is given as 187.800; the “worm burdens, Median” value is 167.0000. In addition, in the assay on A. caninum, the “worm burden, Colon, Male, Average” value came out at 5; the “worm burden, Colon, Female, Average” value came to 12; the “worm burden, Intestine, Female, Average” value turned out to be 83; the “worm burden, Intestine, Male, Average” value worked out at 87. Moreover, in the assay with A. caninum, the “worm burden, Total, Average” value was determined as 188; the “worm burden, Colon, Female” value is 3 and 1 and 12 and 24 and 21; the “worm burden, Colon, Male” value was 3 and 0 and 2 and 9 and 10; the “worm burden, Intestine, Female” value was 86 and 83 and 66 and 91 (2×). Further, in the assay on A. caninum, the “worm burden, Intestine, Male” value is 54 and 83 and 80 and 105 and 115; the “worm burden, Total” value is 146 and 167 and 160 and 229 and 237. Further, in the assay with A. caninum (relative to the control group), the “fecal eggs (fecundity), in words” value is on record as “significant reduction in fecal eggs”. Also, in the assay on A. caninum (versus AS03 control), the “worm burden, in words” value is “no remarkable reduction in worm burden”.
